Key:
Experiment in all cases: multiplexed single-antigen bead assay (Luminex); 5 µg PE-conjugated KIR tetramers, 30 min at room temperature, with LABScreen HLA Class I Single Antigen beads; MFI normalised to the highest value of each experiment
[1] = biological target: bead-bound HLA-C*14:02 presenting a broad repertoire of peptides (human)
[2] = biological target: bead-bound HLA-C*17:01 presenting a broad repertoire of peptides (human)
[3] = biological target: bead-bound HLA-C*15:02 presenting a broad repertoire of peptides (human)

soluble tetrameric form of KIR2DL2 (PE-conjugated KIR tetramer), sequence (P43627 22-245): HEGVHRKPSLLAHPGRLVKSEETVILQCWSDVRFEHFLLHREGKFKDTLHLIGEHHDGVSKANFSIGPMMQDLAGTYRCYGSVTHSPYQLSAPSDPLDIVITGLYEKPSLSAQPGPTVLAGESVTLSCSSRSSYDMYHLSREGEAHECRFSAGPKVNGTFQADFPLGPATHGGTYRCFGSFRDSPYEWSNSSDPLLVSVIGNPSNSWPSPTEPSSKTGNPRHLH
soluble tetrameric form of KIR2DL3 (PE-conjugated KIR tetramer), sequence (P43628 22-245): as the sequence (P43627 22-245) above, with R16P, E35Q, C148R, I200T, K216E counted along it

Row | percent of the maximum avidity [1] [%] | percent of the top avidity [2] [%] | percent of the top avidity [3] [%] | percent of the avidity of the top binding allomorph [1] [%] | Substance
1 | 43 | – | – | – | soluble tetrameric form of KIR2DL3 (PE-conjugated KIR tetramer) (from UniProt P43628 22-245) (receptor)
2 | – | 55 | 55 | 14.7 | soluble tetrameric form of KIR2DL2 (PE-conjugated KIR tetramer) (from UniProt P43627 22-245) (receptor)

From article PMC8041999
